* marks the point of attachment. Palmitoyl = CCCCCCCCCCCCCCCC(=O)*
Target: PTHR1 receptor
Sequence (P25961 whole entry): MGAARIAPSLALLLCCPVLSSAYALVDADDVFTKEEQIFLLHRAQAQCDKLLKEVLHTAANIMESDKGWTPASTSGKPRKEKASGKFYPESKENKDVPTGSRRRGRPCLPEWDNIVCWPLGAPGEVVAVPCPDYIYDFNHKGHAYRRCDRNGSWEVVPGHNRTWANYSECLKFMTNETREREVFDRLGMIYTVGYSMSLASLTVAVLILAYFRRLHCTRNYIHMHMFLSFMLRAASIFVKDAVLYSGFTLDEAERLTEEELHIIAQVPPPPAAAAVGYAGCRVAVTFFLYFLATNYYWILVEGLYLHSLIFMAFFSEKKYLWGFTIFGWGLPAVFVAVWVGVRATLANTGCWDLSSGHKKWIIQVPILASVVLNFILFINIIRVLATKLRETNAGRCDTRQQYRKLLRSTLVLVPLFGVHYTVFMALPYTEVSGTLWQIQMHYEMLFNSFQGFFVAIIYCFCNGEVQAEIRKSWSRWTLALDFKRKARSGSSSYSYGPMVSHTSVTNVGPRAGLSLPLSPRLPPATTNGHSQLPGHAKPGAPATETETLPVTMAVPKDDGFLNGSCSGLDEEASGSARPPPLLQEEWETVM

Row | Binder | Fold Shift of EC50 [fold] | Inhibition of Maximal Response [%]
1 | Palmitoyl-YFRRLHSTRNYIH-NH2 (SMILES CCCCCCCCCCCCCCCC(=O)N[C@@H](Cc1ccc(O)cc1)C(=O)N[C@@H](Cc1ccccc1)C(=O)N[C@@H](CCCNC(=N)N)C(=O)N[C@@H](CCCNC(=N)N)C(=O)N[C@@H](CC(C)C)C(=O)N[C@@H](Cc1c[nH]cn1)C(=O)N[C@@H](CO)C(=O)N[C@H](C(=O)N[C@@H](CCCNC(=N)N)C(=O)N[C@@H](CC(N)=O)C(=O)N[C@@H](Cc1ccc(O)cc1)C(=O)N[C@H](C(=O)N[C@@H](Cc1c[nH]cn1)C(N)=O)[C@@H](C)CC)[C@@H](C)O) [Compound 6] | 1 | 10.8
2 | Palmitoyl-TNAGRSATRQQYRKLL-NH2 (SMILES CCCCCCCCCCCCCCCC(=O)N[C@H](C(=O)N[C@@H](CC(N)=O)C(=O)N[C@@H](C)C(=O)NCC(=O)N[C@@H](CCCNC(=N)N)C(=O)N[C@@H](CO)C(=O)N[C@@H](C)C(=O)N[C@H](C(=O)N[C@@H](CCCNC(=N)N)C(=O)N[C@@H](CCC(N)=O)C(=O)N[C@@H](CCC(N)=O)C(=O)N[C@@H](Cc1ccc(O)cc1)C(=O)N[C@@H](CCCNC(=N)N)C(=O)N[C@@H](CCCCN)C(=O)N[C@@H](CC(C)C)C(=O)N[C@@H](CC(C)C)C(N)=O)[C@@H](C)O)[C@@H](C)O) [Compound 82] | 23.4 | -21.6
3 | Palmitoyl-TNAGRSDTRAQYRKLL-NH2 (SMILES CCCCCCCCCCCCCCCC(=O)N[C@H](C(=O)N[C@@H](CC(N)=O)C(=O)N[C@@H](C)C(=O)NCC(=O)N[C@@H](CCCNC(=N)N)C(=O)N[C@@H](CO)C(=O)N[C@@H](CC(=O)O)C(=O)N[C@H](C(=O)N[C@@H](CCCNC(=N)N)C(=O)N[C@@H](C)C(=O)N[C@@H](CCC(N)=O)C(=O)N[C@@H](Cc1ccc(O)cc1)C(=O)N[C@@H](CCCNC(=N)N)C(=O)N[C@@H](CCCCN)C(=O)N[C@@H](CC(C)C)C(=O)N[C@@H](CC(C)C)C(N)=O)[C@@H](C)O)[C@@H](C)O) [Compound 81] | 13.8 | -20.8
4 | Palmitoyl-TNAARSDTRQQYRKLL-NH2 (SMILES CCCCCCCCCCCCCCCC(=O)N[C@H](C(=O)N[C@@H](CC(N)=O)C(=O)N[C@@H](C)C(=O)N[C@@H](C)C(=O)N[C@@H](CCCNC(=N)N)C(=O)N[C@@H](CO)C(=O)N[C@@H](CC(=O)O)C(=O)N[C@H](C(=O)N[C@@H](CCCNC(=N)N)C(=O)N[C@@H](CCC(N)=O)C(=O)N[C@@H](CCC(N)=O)C(=O)N[C@@H](Cc1ccc(O)cc1)C(=O)N[C@@H](CCCNC(=N)N)C(=O)N[C@@H](CCCCN)C(=O)N[C@@H](CC(C)C)C(=O)N[C@@H](CC(C)C)C(N)=O)[C@@H](C)O)[C@@H](C)O) [Compound 80] | 2.3 | 0.8
5 | Palmitoyl-TNAGASDTRQQYRKLL-NH2 (SMILES CCCCCCCCCCCCCCCC(=O)N[C@H](C(=O)N[C@@H](CC(N)=O)C(=O)N[C@@H](C)C(=O)NCC(=O)N[C@@H](C)C(=O)N[C@@H](CO)C(=O)N[C@@H](CC(=O)O)C(=O)N[C@H](C(=O)N[C@@H](CCCNC(=N)N)C(=O)N[C@@H](CCC(N)=O)C(=O)N[C@@H](CCC(N)=O)C(=O)N[C@@H](Cc1ccc(O)cc1)C(=O)N[C@@H](CCCNC(=N)N)C(=O)N[C@@H](CCCCN)C(=O)N[C@@H](CC(C)C)C(=O)N[C@@H](CC(C)C)C(N)=O)[C@@H](C)O)[C@@H](C)O) [Compound 76] | 16.9 | 2.4
6 | Palmitoyl-TNAGRADTRQQYRKLL-NH2 (SMILES CCCCCCCCCCCCCCCC(=O)N[C@H](C(=O)N[C@@H](CC(N)=O)C(=O)N[C@@H](C)C(=O)NCC(=O)N[C@@H](CCCNC(=N)N)C(=O)N[C@@H](C)C(=O)N[C@@H](CC(=O)O)C(=O)N[C@H](C(=O)N[C@@H](CCCNC(=N)N)C(=O)N[C@@H](CCC(N)=O)C(=O)N[C@@H](CCC(N)=O)C(=O)N[C@@H](Cc1ccc(O)cc1)C(=O)N[C@@H](CCCNC(=N)N)C(=O)N[C@@H](CCCCN)C(=O)N[C@@H](CC(C)C)C(=O)N[C@@H](CC(C)C)C(N)=O)[C@@H](C)O)[C@@H](C)O) [Compound 77] | 6.9 | 9.9
7 | Palmitoyl-TNAGRSDTAQQYRKLL-NH2 (SMILES CCCCCCCCCCCCCCCC(=O)N[C@H](C(=O)N[C@@H](CC(N)=O)C(=O)N[C@@H](C)C(=O)NCC(=O)N[C@@H](CCCNC(=N)N)C(=O)N[C@@H](CO)C(=O)N[C@@H](CC(=O)O)C(=O)N[C@H](C(=O)N[C@@H](C)C(=O)N[C@@H](CCC(N)=O)C(=O)N[C@@H](CCC(N)=O)C(=O)N[C@@H](Cc1ccc(O)cc1)C(=O)N[C@@H](CCCNC(=N)N)C(=O)N[C@@H](CCCCN)C(=O)N[C@@H](CC(C)C)C(=O)N[C@@H](CC(C)C)C(N)=O)[C@@H](C)O)[C@@H](C)O) [Compound 78] | 12.7 | -29.2
8 | Palmitoyl-TNAGRSDARQQYRKLL-NH2 (SMILES CCCCCCCCCCCCCCCC(=O)N[C@H](C(=O)N[C@@H](CC(N)=O)C(=O)N[C@@H](C)C(=O)NCC(=O)N[C@@H](CCCNC(=N)N)C(=O)N[C@@H](CO)C(=O)N[C@@H](CC(=O)O)C(=O)N[C@@H](C)C(=O)N[C@@H](CCCNC(=N)N)C(=O)N[C@@H](CCC(N)=O)C(=O)N[C@@H](CCC(N)=O)C(=O)N[C@@H](Cc1ccc(O)cc1)C(=O)N[C@@H](CCCNC(=N)N)C(=O)N[C@@H](CCCCN)C(=O)N[C@@H](CC(C)C)C(=O)N[C@@H](CC(C)C)C(N)=O)[C@@H](C)O) [Compound 79] | 7.2 | 1.2

Further lines, results first:

Row | Fold Shift of EC50 [fold] | Inhibition of Maximal Response [%] | Binder
9 | 1.2 | -7.3 | Palmitoyl-WTLALDFKRKAR-NH2 (SMILES CCCCCCCCCCCCCCCC(=O)N[C@@H](Cc1c[nH]c2ccccc12)C(=O)N[C@H](C(=O)N[C@@H](CC(C)C)C(=O)N[C@@H](C)C(=O)N[C@@H](CC(C)C)C(=O)N[C@@H](CC(=O)O)C(=O)N[C@@H](Cc1ccccc1)C(=O)N[C@@H](CCCCN)C(=O)N[C@@H](CCCNC(=N)N)C(=O)N[C@@H](CCCCN)C(=O)N[C@@H](C)C(=O)N[C@@H](CCCNC(=N)N)C(N)=O)[C@@H](C)O) [Compound 103]
10 | 1.1 | 34 | Palmitoyl-NGEVQAEIKKSWSRWTLALD-NH2 (SMILES CCCCCCCCCCCCCCCC(=O)N[C@@H](CC(N)=O)C(=O)NCC(=O)N[C@@H](CCC(=O)O)C(=O)N[C@H](C(=O)N[C@@H](CCC(N)=O)C(=O)N[C@@H](C)C(=O)N[C@@H](CCC(=O)O)C(=O)N[C@H](C(=O)N[C@@H](CCCCN)C(=O)N[C@@H](CCCCN)C(=O)N[C@@H](CO)C(=O)N[C@@H](Cc1c[nH]c2ccccc12)C(=O)N[C@@H](CO)C(=O)N[C@@H](CCCNC(=N)N)C(=O)N[C@@H](Cc1c[nH]c2ccccc12)C(=O)N[C@H](C(=O)N[C@@H](CC(C)C)C(=O)N[C@@H](C)C(=O)N[C@@H](CC(C)C)C(=O)N[C@@H](CC(=O)O)C(N)=O)[C@@H](C)O)[C@@H](C)CC)C(C)C) [Compound 105]
11 | 1.2 | 25.3 | Palmitoyl-NGEVQAEIKKSWSRWT-NH2 (SMILES CCCCCCCCCCCCCCCC(=O)N[C@@H](CC(N)=O)C(=O)NCC(=O)N[C@@H](CCC(=O)O)C(=O)N[C@H](C(=O)N[C@@H](CCC(N)=O)C(=O)N[C@@H](C)C(=O)N[C@@H](CCC(=O)O)C(=O)N[C@H](C(=O)N[C@@H](CCCCN)C(=O)N[C@@H](CCCCN)C(=O)N[C@@H](CO)C(=O)N[C@@H](Cc1c[nH]c2ccccc12)C(=O)N[C@@H](CO)C(=O)N[C@@H](CCCNC(=N)N)C(=O)N[C@@H](Cc1c[nH]c2ccccc12)C(=O)N[C@H](C(N)=O)[C@@H](C)O)[C@@H](C)CC)C(C)C) [Compound 101]
12 | 1.2 | 26.8 | Palmitoyl-SRWTLALDFKRKAR-NH2 (SMILES CCCCCCCCCCCCCCCC(=O)N[C@@H](CO)C(=O)N[C@@H](CCCNC(=N)N)C(=O)N[C@@H](Cc1c[nH]c2ccccc12)C(=O)N[C@H](C(=O)N[C@@H](CC(C)C)C(=O)N[C@@H](C)C(=O)N[C@@H](CC(C)C)C(=O)N[C@@H](CC(=O)O)C(=O)N[C@@H](Cc1ccccc1)C(=O)N[C@@H](CCCCN)C(=O)N[C@@H](CCCNC(=N)N)C(=O)N[C@@H](CCCCN)C(=O)N[C@@H](C)C(=O)N[C@@H](CCCNC(=N)N)C(N)=O)[C@@H](C)O) [Compound 104]
13 | 1 | 17.5 | Palmitoyl-NGEVQAEIKKSW-NH2 (SMILES CCCCCCCCCCCCCCCC(=O)N[C@@H](CC(N)=O)C(=O)NCC(=O)N[C@@H](CCC(=O)O)C(=O)N[C@H](C(=O)N[C@@H](CCC(N)=O)C(=O)N[C@@H](C)C(=O)N[C@@H](CCC(=O)O)C(=O)N[C@H](C(=O)N[C@@H](CCCCN)C(=O)N[C@@H](CCCCN)C(=O)N[C@@H](CO)C(=O)N[C@@H](Cc1c[nH]c2ccccc12)C(N)=O)[C@@H](C)CC)C(C)C) [Compound 99]
14 | 1.8 | 26.8 | Palmitoyl-NGEVQAEIKKSWSR-NH2 (SMILES CCCCCCCCCCCCCCCC(=O)N[C@@H](CC(N)=O)C(=O)NCC(=O)N[C@@H](CCC(=O)O)C(=O)N[C@H](C(=O)N[C@@H](CCC(N)=O)C(=O)N[C@@H](C)C(=O)N[C@@H](CCC(=O)O)C(=O)N[C@H](C(=O)N[C@@H](CCCCN)C(=O)N[C@@H](CCCCN)C(=O)N[C@@H](CO)C(=O)N[C@@H](Cc1c[nH]c2ccccc12)C(=O)N[C@@H](CO)C(=O)N[C@@H](CCCNC(=N)N)C(N)=O)[C@@H](C)CC)C(C)C) [Compound 100]
